Measured values published in patent US20180071366A1.
One block for each binder: values may come before it. Numbered stars: 1 amine (or outer) side, 2 acyl side, 3 side chain; on linkers, the order of the positions; unused ones are H or OH. Bridge positions count the residues as written; N and C are the ends. Square brackets hold non-standard residues; d marks the D form. * marks the point of attachment. C20 diacid = O=C(O)CCCCCCCCCCCCCCCCCCC(=O)*; γGlu = O=C(O)[C@H](CCC(=O)[*:2])N[*:1]; Hyp = O=C(O)[C@@H]1C[C@@H](O)CN1; NMeI = CC[C@H](C)[C@H](NC)C(=O)O; Orn = NCCC[C@H](N)C(=O)O; Sar = CNCC(=O)O

Assays:
[1] = biological target: recombinant human amylin 3 receptor (hAMYR3) (human), P30988; assay: cell-based or functional assay
[2] = biological target: recombinant human calcitonin receptor (hCT-R) (human), P30988; assay: cell-based or functional assay
recombinant human calcitonin receptor (hCT-R) (human), P30988, sequence (P30988 25-474): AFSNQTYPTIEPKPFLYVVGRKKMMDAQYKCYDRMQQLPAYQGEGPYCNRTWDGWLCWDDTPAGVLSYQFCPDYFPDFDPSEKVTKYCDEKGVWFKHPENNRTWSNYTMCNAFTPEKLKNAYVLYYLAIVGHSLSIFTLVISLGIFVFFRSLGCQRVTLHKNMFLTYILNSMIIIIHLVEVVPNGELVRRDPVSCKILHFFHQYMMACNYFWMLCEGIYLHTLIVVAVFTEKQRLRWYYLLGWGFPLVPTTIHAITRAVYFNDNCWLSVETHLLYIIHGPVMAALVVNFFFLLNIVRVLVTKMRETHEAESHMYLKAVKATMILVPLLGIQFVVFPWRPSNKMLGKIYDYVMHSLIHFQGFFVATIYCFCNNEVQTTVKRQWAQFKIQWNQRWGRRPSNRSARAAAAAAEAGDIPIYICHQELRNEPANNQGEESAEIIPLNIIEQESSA

recombinant human amylin 3 receptor (hAMYR3) (human), P30988, sequence (P30988 25-474, chain 1 of 2): as the sequence (P30988 25-474) above
recombinant human amylin 3 receptor (hAMYR3) (human), P30988, sequence (O60896 24-148, chain 2 of 2, further chain): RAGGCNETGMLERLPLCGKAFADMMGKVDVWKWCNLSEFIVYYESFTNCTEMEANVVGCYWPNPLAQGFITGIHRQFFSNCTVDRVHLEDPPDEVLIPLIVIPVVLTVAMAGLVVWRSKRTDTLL

hAMYR3 EC50 [nM] (cAMP formation, 1321N1 cells expressing hAMYR3) [1]: 0.059 nM
hCT-R EC50 [nM] (cAMP formation, 1321N1 cells expressing hCT-R) [2]: 0.129 nM
B1: Compound 8 (peptide)
peptide: {C20 diacid-γGlu}-RDGTAT[Orn]ATQRLAHFLQRSSF[Sar]A[NMeI]LSSTEVGSNT[Hyp]-NH2
modifications: lactam 2-7
SMILES: CC[C@H](C)[C@@H](C(=O)N[C@@H](CC(C)C)C(=O)N[C@@H](CO)C(=O)N[C@@H](CO)C(=O)N[C@H](C(=O)N[C@@H](CCC(=O)O)C(=O)N[C@H](C(=O)NCC(=O)N[C@@H](CO)C(=O)N[C@@H](CC(N)=O)C(=O)N[C@H](C(=O)N1C[C@H](O)C[C@H]1C(N)=O)[C@@H](C)O)C(C)C)[C@@H](C)O)N(C)C(=O)[C@H](C)NC(=O)CN(C)C(=O)[C@H](Cc1ccccc1)NC(=O)[C@H](CO)NC(=O)[C@H](CO)NC(=O)[C@H](CCCNC(=N)N)NC(=O)[C@H](CCC(N)=O)NC(=O)[C@H](CC(C)C)NC(=O)[C@H](Cc1ccccc1)NC(=O)[C@H](Cc1c[nH]cn1)NC(=O)[C@H](C)NC(=O)[C@H](CC(C)C)NC(=O)[C@H](CCCNC(=N)N)NC(=O)[C@H](CCC(N)=O)NC(=O)[C@@H](NC(=O)[C@H](C)NC(=O)[C@@H]1CCCNC(=O)C[C@H](NC(=O)[C@H](CCCNC(=N)N)NC(=O)CC[C@H](NC(=O)CCCCCCCCCCCCCCCCCCC(=O)O)C(=O)O)C(=O)NCC(=O)N[C@@H]([C@@H](C)O)C(=O)N[C@@H](C)C(=O)N[C@@H]([C@@H](C)O)C(=O)N1)[C@@H](C)O

hAMYR3 EC50 [nM] (cAMP formation, 1321N1 cells expressing hAMYR3) [1]: 0.999 nM
hCT-R EC50 [nM] (cAMP formation, 1321N1 cells expressing hCT-R) [2]: 0.893 nM
B2: Compound 12 (peptide)
peptide: {C20 diacid-γGlu}-RDGEATKATERLAHFLQRSSF[Sar]A[NMeI]LSSTEVGSNT[Hyp]-NH2
modifications: lactam 2-7
SMILES: CC[C@H](C)[C@@H](C(=O)N[C@@H](CC(C)C)C(=O)N[C@@H](CO)C(=O)N[C@@H](CO)C(=O)N[C@H](C(=O)N[C@@H](CCC(=O)O)C(=O)N[C@H](C(=O)NCC(=O)N[C@@H](CO)C(=O)N[C@@H](CC(N)=O)C(=O)N[C@H](C(=O)N1C[C@H](O)C[C@H]1C(N)=O)[C@@H](C)O)C(C)C)[C@@H](C)O)N(C)C(=O)[C@H](C)NC(=O)CN(C)C(=O)[C@H](Cc1ccccc1)NC(=O)[C@H](CO)NC(=O)[C@H](CO)NC(=O)[C@H](CCCNC(=N)N)NC(=O)[C@H](CCC(N)=O)NC(=O)[C@H](CC(C)C)NC(=O)[C@H](Cc1ccccc1)NC(=O)[C@H](Cc1c[nH]cn1)NC(=O)[C@H](C)NC(=O)[C@H](CC(C)C)NC(=O)[C@H](CCCNC(=N)N)NC(=O)[C@H](CCC(=O)O)NC(=O)[C@@H](NC(=O)[C@H](C)NC(=O)[C@@H]1CCCCNC(=O)C[C@H](NC(=O)[C@H](CCCNC(=N)N)NC(=O)CC[C@H](NC(=O)CCCCCCCCCCCCCCCCCCC(=O)O)C(=O)O)C(=O)NCC(=O)N[C@@H](CCC(=O)O)C(=O)N[C@@H](C)C(=O)N[C@@H]([C@@H](C)O)C(=O)N1)[C@@H](C)O

hAMYR3 EC50 [nM] (cAMP formation, 1321N1 cells expressing hAMYR3) [1]: 0.456 nM
hCT-R EC50 [nM] (cAMP formation, 1321N1 cells expressing hCT-R) [2]: 1.41 nM
B3: Compound 13 (peptide)
peptide: {C20 diacid-γGlu}-RDGTLTKATERLAHFLQRSSF[Sar]A[NMeI]LSSTEVGSNT[Hyp]-NH2
modifications: lactam 2-7
SMILES: CC[C@H](C)[C@@H](C(=O)N[C@@H](CC(C)C)C(=O)N[C@@H](CO)C(=O)N[C@@H](CO)C(=O)N[C@H](C(=O)N[C@@H](CCC(=O)O)C(=O)N[C@H](C(=O)NCC(=O)N[C@@H](CO)C(=O)N[C@@H](CC(N)=O)C(=O)N[C@H](C(=O)N1C[C@H](O)C[C@H]1C(N)=O)[C@@H](C)O)C(C)C)[C@@H](C)O)N(C)C(=O)[C@H](C)NC(=O)CN(C)C(=O)[C@H](Cc1ccccc1)NC(=O)[C@H](CO)NC(=O)[C@H](CO)NC(=O)[C@H](CCCNC(=N)N)NC(=O)[C@H](CCC(N)=O)NC(=O)[C@H](CC(C)C)NC(=O)[C@H](Cc1ccccc1)NC(=O)[C@H](Cc1c[nH]cn1)NC(=O)[C@H](C)NC(=O)[C@H](CC(C)C)NC(=O)[C@H](CCCNC(=N)N)NC(=O)[C@H](CCC(=O)O)NC(=O)[C@@H](NC(=O)[C@H](C)NC(=O)[C@@H]1CCCCNC(=O)C[C@H](NC(=O)[C@H](CCCNC(=N)N)NC(=O)CC[C@H](NC(=O)CCCCCCCCCCCCCCCCCCC(=O)O)C(=O)O)C(=O)NCC(=O)N[C@@H]([C@@H](C)O)C(=O)N[C@@H](CC(C)C)C(=O)N[C@@H]([C@@H](C)O)C(=O)N1)[C@@H](C)O

hAMYR3 EC50 [nM] (cAMP formation, 1321N1 cells expressing hAMYR3) [1]: 0.068 nM
hCT-R EC50 [nM] (cAMP formation, 1321N1 cells expressing hCT-R) [2]: 0.345 nM
B4: Compound 10 (peptide)
peptide: {C20 diacid-γGlu}-RDGTAT[Orn]ATERLARFLQRSSF[Sar]A[NMeI]LSSTEVGSNT[Hyp]-NH2
modifications: lactam 2-7
SMILES: CC[C@H](C)[C@@H](C(=O)N[C@@H](CC(C)C)C(=O)N[C@@H](CO)C(=O)N[C@@H](CO)C(=O)N[C@H](C(=O)N[C@@H](CCC(=O)O)C(=O)N[C@H](C(=O)NCC(=O)N[C@@H](CO)C(=O)N[C@@H](CC(N)=O)C(=O)N[C@H](C(=O)N1C[C@H](O)C[C@H]1C(N)=O)[C@@H](C)O)C(C)C)[C@@H](C)O)N(C)C(=O)[C@H](C)NC(=O)CN(C)C(=O)[C@H](Cc1ccccc1)NC(=O)[C@H](CO)NC(=O)[C@H](CO)NC(=O)[C@H](CCCNC(=N)N)NC(=O)[C@H](CCC(N)=O)NC(=O)[C@H](CC(C)C)NC(=O)[C@H](Cc1ccccc1)NC(=O)[C@H](CCCNC(=N)N)NC(=O)[C@H](C)NC(=O)[C@H](CC(C)C)NC(=O)[C@H](CCCNC(=N)N)NC(=O)[C@H](CCC(=O)O)NC(=O)[C@@H](NC(=O)[C@H](C)NC(=O)[C@@H]1CCCNC(=O)C[C@H](NC(=O)[C@H](CCCNC(=N)N)NC(=O)CC[C@H](NC(=O)CCCCCCCCCCCCCCCCCCC(=O)O)C(=O)O)C(=O)NCC(=O)N[C@@H]([C@@H](C)O)C(=O)N[C@@H](C)C(=O)N[C@@H]([C@@H](C)O)C(=O)N1)[C@@H](C)O

hAMYR3 EC50 [nM] (cAMP formation, 1321N1 cells expressing hAMYR3) [1]: 0.013 nM
hCT-R EC50 [nM] (cAMP formation, 1321N1 cells expressing hCT-R) [2]: 0.027 nM
B5: Compound 9 (peptide)
peptide: {C20 diacid-γGlu}-RDGTAT[Orn]ATQRLAHFLQRSSF[Sar]A[NMeI]PSSTEVGSNT[Hyp]-NH2
modifications: lactam 2-7
SMILES: CC[C@H](C)[C@@H](C(=O)N1CCC[C@H]1C(=O)N[C@@H](CO)C(=O)N[C@@H](CO)C(=O)N[C@H](C(=O)N[C@@H](CCC(=O)O)C(=O)N[C@H](C(=O)NCC(=O)N[C@@H](CO)C(=O)N[C@@H](CC(N)=O)C(=O)N[C@H](C(=O)N1C[C@H](O)C[C@H]1C(N)=O)[C@@H](C)O)C(C)C)[C@@H](C)O)N(C)C(=O)[C@H](C)NC(=O)CN(C)C(=O)[C@H](Cc1ccccc1)NC(=O)[C@H](CO)NC(=O)[C@H](CO)NC(=O)[C@H](CCCNC(=N)N)NC(=O)[C@H](CCC(N)=O)NC(=O)[C@H](CC(C)C)NC(=O)[C@H](Cc1ccccc1)NC(=O)[C@H](Cc1c[nH]cn1)NC(=O)[C@H](C)NC(=O)[C@H](CC(C)C)NC(=O)[C@H](CCCNC(=N)N)NC(=O)[C@H](CCC(N)=O)NC(=O)[C@@H](NC(=O)[C@H](C)NC(=O)[C@@H]1CCCNC(=O)C[C@H](NC(=O)[C@H](CCCNC(=N)N)NC(=O)CC[C@H](NC(=O)CCCCCCCCCCCCCCCCCCC(=O)O)C(=O)O)C(=O)NCC(=O)N[C@@H]([C@@H](C)O)C(=O)N[C@@H](C)C(=O)N[C@@H]([C@@H](C)O)C(=O)N1)[C@@H](C)O

hAMYR3 EC50 [nM] (cAMP formation, 1321N1 cells expressing hAMYR3) [1]: 0.032 nM
hCT-R EC50 [nM] (cAMP formation, 1321N1 cells expressing hCT-R) [2]: 0.289 nM
B6: Compound 7 (peptide)
peptide: {C20 diacid-γGlu}-RDGTAT[Orn]ATERLAHFLHRSSF[Sar]A[NMeI]LSSTEVGSNTP-NH2
modifications: lactam 2-7
SMILES: CC[C@H](C)[C@@H](C(=O)N[C@@H](CC(C)C)C(=O)N[C@@H](CO)C(=O)N[C@@H](CO)C(=O)N[C@H](C(=O)N[C@@H](CCC(=O)O)C(=O)N[C@H](C(=O)NCC(=O)N[C@@H](CO)C(=O)N[C@@H](CC(N)=O)C(=O)N[C@H](C(=O)N1CCC[C@H]1C(N)=O)[C@@H](C)O)C(C)C)[C@@H](C)O)N(C)C(=O)[C@H](C)NC(=O)CN(C)C(=O)[C@H](Cc1ccccc1)NC(=O)[C@H](CO)NC(=O)[C@H](CO)NC(=O)[C@H](CCCNC(=N)N)NC(=O)[C@H](Cc1c[nH]cn1)NC(=O)[C@H](CC(C)C)NC(=O)[C@H](Cc1ccccc1)NC(=O)[C@H](Cc1c[nH]cn1)NC(=O)[C@H](C)NC(=O)[C@H](CC(C)C)NC(=O)[C@H](CCCNC(=N)N)NC(=O)[C@H](CCC(=O)O)NC(=O)[C@@H](NC(=O)[C@H](C)NC(=O)[C@@H]1CCCNC(=O)C[C@H](NC(=O)[C@H](CCCNC(=N)N)NC(=O)CC[C@H](NC(=O)CCCCCCCCCCCCCCCCCCC(=O)O)C(=O)O)C(=O)NCC(=O)N[C@@H]([C@@H](C)O)C(=O)N[C@@H](C)C(=O)N[C@@H]([C@@H](C)O)C(=O)N1)[C@@H](C)O

hAMYR3 EC50 [nM] (cAMP formation, 1321N1 cells expressing hAMYR3) [1]: 0.024 nM
hCT-R EC50 [nM] (cAMP formation, 1321N1 cells expressing hCT-R) [2]: 0.068 nM
B7: Compound 11 (peptide)
peptide: {C20 diacid-γGlu}-EDGTATKATERLAHFLQRSSF[Sar]A[NMeI]LSSTEVGSNT[Hyp]-NH2
modifications: lactam 2-7
SMILES: CC[C@H](C)[C@@H](C(=O)N[C@@H](CC(C)C)C(=O)N[C@@H](CO)C(=O)N[C@@H](CO)C(=O)N[C@H](C(=O)N[C@@H](CCC(=O)O)C(=O)N[C@H](C(=O)NCC(=O)N[C@@H](CO)C(=O)N[C@@H](CC(N)=O)C(=O)N[C@H](C(=O)N1C[C@H](O)C[C@H]1C(N)=O)[C@@H](C)O)C(C)C)[C@@H](C)O)N(C)C(=O)[C@H](C)NC(=O)CN(C)C(=O)[C@H](Cc1ccccc1)NC(=O)[C@H](CO)NC(=O)[C@H](CO)NC(=O)[C@H](CCCNC(=N)N)NC(=O)[C@H](CCC(N)=O)NC(=O)[C@H](CC(C)C)NC(=O)[C@H](Cc1ccccc1)NC(=O)[C@H](Cc1c[nH]cn1)NC(=O)[C@H](C)NC(=O)[C@H](CC(C)C)NC(=O)[C@H](CCCNC(=N)N)NC(=O)[C@H](CCC(=O)O)NC(=O)[C@@H](NC(=O)[C@H](C)NC(=O)[C@@H]1CCCCNC(=O)C[C@H](NC(=O)[C@H](CCC(=O)O)NC(=O)CC[C@H](NC(=O)CCCCCCCCCCCCCCCCCCC(=O)O)C(=O)O)C(=O)NCC(=O)N[C@@H]([C@@H](C)O)C(=O)N[C@@H](C)C(=O)N[C@@H]([C@@H](C)O)C(=O)N1)[C@@H](C)O
